From US10239925B2, “Peptides and combination of peptides for use in immunotherapy against ovarian cancer and other cancers” (IMMATICS BIOTECHNOLOGIES GMBH, priority 2015, dated 2019)

Target: HLA-A*02:01 (Homo sapiens, UniProt P04439, D140Y/D185E/D98H/E176V/E277Q/G131W/G231S/I119V/I121R/I166T/I218V/L300P/L318F/N151K/N90K/P208A/P217A/Q86G/Q94H/R138H/R169H/T345S)
Assay: MHC binding assay (UV-ligand exchange, anti-β2m ELISA, peptide exchange yield)
Settings: binding to HLA-A*02:01
Text: Candidate peptides for T cell based therapies according to the present invention were further tested for their MHC binding capacity (affinity). The individual peptide-MHC complexes were produced by UV-ligand exchange, where a UV-sensitive peptide is cleaved upon UV-irradiation, and exchanged with the peptide of interest as analyzed. Only peptide candidates that can effectively bind and stabilize the peptide-receptive MHC molecules prevent dissociation of the MHC complexes. To determine the yield of the exchange reaction, an ELISA was performed based on the detection of the light chain (β2m) of stabilized MHC complexes. The assay was performed as generally described in Rodenko et al. (Rodenko et al., 2006).
96 well MAXISorp plates (NUNC) were coated over night with 2 ug/ml streptavidin in PBS at room temperature, washed 4× and blocked for 1h at 37° C. in 2% BSA containing blocking buffer. […] Peptide-MHC monomers of the UV-exchange reaction were diluted 100 fold in blocking buffer. Samples were incubated for 1 h at 37° C., washed four times, incubated with 2 ug/ml HRP conjugated anti-β2m for 1h at 37° C., washed again and detected with TMB solution that is stopped with […]. Absorption was measured at 450 nm. Candidate peptides that show a high exchange yield (preferably higher than 50%, most preferred higher than 75%) are generally preferred for a generation and production of antibodies or fragments thereof, and/or T cell receptors or fragments thereof, as they show sufficient avidity to the MHC molecules and prevent dissociation of the MHC complexes.

| Peptide exchange (MHC class I binding score, peptide exchange yield) | Substance |
| --- | --- |
| “+++” (>50 = +++) | 71 (GILARIASV; listed as Homo sapiens) [compound 71] |
| “+++” (>50 = +++) | 72 (SLLELDGINL; listed as Homo sapiens) [compound 72] |
| “+++” (>50 = +++) | 73 (NIFDLQIYV; listed as Homo sapiens) [compound 73] |
| “+++” (>50 = +++) | 74 (ALLDPEVLSIFV; listed as Homo sapiens) [compound 74] |
| “+++” (>50 = +++) | 75 (GLLEVMVNL; listed as Homo sapiens) [compound 75] |
| “+++” (>50 = +++) | 76 (ILIDSIYKV; listed as Homo sapiens) [compound 76] |
| “++++” (>75% = ++++) | 77 (ILVEADGAWVV; listed as Homo sapiens) [compound 77] |
| “+++” (>50 = +++) | 78 (SLFSSLEPQIQPV; listed as Homo sapiens) [compound 78] |
| “++” (>20% = ++) | 80 (FLYDNLVESL; listed as Homo sapiens) [compound 80] |
| “++” (>20% = ++) | 81 (FLFSQLQYL; listed as Homo sapiens) [compound 81] |
| “+++” (>50 = +++) | 82 (FLSSVTYNL; listed as Homo sapiens) [compound 82] |
| “+++” (>50 = +++) | 83 (ILAPTVMMI; listed as Homo sapiens) [compound 83] |
| “++” (>20% = ++) | 84 (VTFGEKLLGV; listed as Homo sapiens) [compound 84] |
| “+++” (>50 = +++) | 85 (KMSELRVTL; listed as Homo sapiens) [compound 85] |
| “+++” (>50 = +++) | 86 (NLIGKIENV; listed as Homo sapiens) [compound 86] |
| “++” (>20% = ++) | 87 (ALPEAPAPLLPHIT; listed as Homo sapiens) [compound 87] |
| “+++” (>50 = +++) | 88 (FLLVGDLMAV; listed as Homo sapiens) [compound 88] |
| “++++” (>75% = ++++) | 89 (YILPTETIYV; listed as Homo sapiens) [compound 89] |
| “+++” (>50 = +++) | 90 (TLLQIIETV; listed as Homo sapiens) [compound 90] |
| “++++” (>75% = ++++) | 91 (IMQDFPAEIFL; listed as Homo sapiens) [compound 91] |
| “++” (>20% = ++) | 92 (YLIPFTGIVGL; listed as Homo sapiens) [compound 92] |

| Peptide exchange (MHC class I binding score, peptide exchange yield) | Substance |
| --- | --- |
| “++” (>20% = ++) | 93 (LLQAIKLYL; listed as Homo sapiens) [compound 93] |
| “++” (>20% = ++) | 94 (YLIDIKTIAI; listed as Homo sapiens) [compound 94] |
| “+++” (>50 = +++) | 95 (SVIPQIQKV; listed as Homo sapiens) [compound 95] |
| “+++” (>50 = +++) | 96 (YIFTDNPAAV; listed as Homo sapiens) [compound 96] |
| “+++” (>50 = +++) | 97 (SLINGSFLV; listed as Homo sapiens) [compound 97] |
| “+++” (>50 = +++) | 98 (LIIDQADIYL; listed as Homo sapiens) [compound 98] |
| “++” (>20% = ++) | 99 (ALVSKGLATV; listed as Homo sapiens) [compound 99] |
| “++++” (>75% = ++++) | 100 (YLLSTNAQL; listed as Homo sapiens) [compound 100] |
| “+++” (>50 = +++) | 101 (ILVGGGALATV; listed as Homo sapiens) [compound 101] |
| “+++” (>50 = +++) | 102 (YLFESEGLVL; listed as Homo sapiens) [compound 102] |
| “+++” (>50 = +++) | 103 (TLAEEVVAL; listed as Homo sapiens) [compound 103] |
| “++++” (>75% = ++++) | 104 (STMEQNFLL; listed as Homo sapiens) [compound 104] |
| “+++” (>50 = +++) | 106 (LLYDAVHIVSV; listed as Homo sapiens) [compound 106] |
| “+++” (>50 = +++) | 107 (FLQPVDDTQHL; listed as Homo sapiens) [compound 107] |
| “++++” (>75% = ++++) | 109 (IILSILEQA; listed as Homo sapiens) [compound 109] |
| “+++” (>50 = +++) | 110 (FLSQVDFEL; listed as Homo sapiens) [compound 110] |
| “+++” (>50 = +++) | 111 (YVWGFYPAEV; listed as Homo sapiens) [compound 111] |
| “++” (>20% = ++) | 114 (SLVGEPILQNV; listed as Homo sapiens) [compound 114] |
| “++” (>20% = ++) | 115 (AIAGAGILYGV; listed as Homo sapiens) [compound 115] |
| “+” (>10% = +) | 116 (YHIDEEVGF; listed as Homo sapiens) [compound 116] |
| “+++” (>50 = +++) | 117 (ILPDGEDFLAV; listed as Homo sapiens) [compound 117] |

| Peptide exchange (MHC class I binding score, peptide exchange yield) | Substance |
| --- | --- |
| “++++” (>75% = ++++) | 119 (FLYIGDIVSL; listed as Homo sapiens) [compound 119] |
| “+++” (>50 = +++) | 120 (ALLGIPLTLV; listed as Homo sapiens) [compound 120] |
| “++” (>20% = ++) | 121 (GVVDPRAISVL; listed as Homo sapiens) [compound 121] |
| “+++” (>50 = +++) | 122 (FLLAEDDIYL; listed as Homo sapiens) [compound 122] |
| “+++” (>50 = +++) | 123 (NLWDLTDASVV; listed as Homo sapiens) [compound 123] |
| “++” (>20% = ++) | 124 (ALYETELADA; listed as Homo sapiens) [compound 124] |
| “+++” (>50 = +++) | 125 (VQIHQVAQV; listed as Homo sapiens) [compound 125] |
| “++++” (>75% = ++++) | 126 (VLAYFLPEA; listed as Homo sapiens) [compound 126] |
| “++” (>20% = ++) | 127 (KIGDEPPKV; listed as Homo sapiens) [compound 127] |
| “++” (>20% = ++) | 128 (YLFDDPLSAV; listed as Homo sapiens) [compound 128] |
| “+++” (>50 = +++) | 129 (GLLDGGVDILL; listed as Homo sapiens) [compound 129] |
| “+++” (>50 = +++) | 130 (FLWNGEDSALL; listed as Homo sapiens) [compound 130] |
| “++” (>20% = ++) | 131 (FVPPVTVFPSL; listed as Homo sapiens) [compound 131] |
| “+++” (>50 = +++) | 132 (LLVEQPPLAGV; listed as Homo sapiens) [compound 132] |
| “++” (>20% = ++) | 133 (KVLSNIHTV; listed as Homo sapiens) [compound 133] |
| “+++” (>50 = +++) | 134 (YLQELIFSV; listed as Homo sapiens) [compound 134] |
| “+++” (>50 = +++) | 135 (ALSEVDFQL; listed as Homo sapiens) [compound 135] |
| “+++” (>50 = +++) | 136 (YLADPSNLFVV; listed as Homo sapiens) [compound 136] |
| “++++” (>75% = ++++) | 137 (TLVLTLPTV; listed as Homo sapiens) [compound 137] |
| “+++” (>50 = +++) | 138 (YQYPRAILSV; listed as Homo sapiens) [compound 138] |
